What all share (test): EMSA; 5 mM Ca2+; EMSA: 40 mM Tris-acetate pH 8.3, 0.1 mg/ml BSA, 10% glycerol, 5 mM CaCl2 or 0.1 mM EDTA, 1 nM DNA, room temperature, 15 min
For one data set, the target named is T1, BsaWI R130A (UniProt Q6UQ65 1-272, R130A).
T1 sequence: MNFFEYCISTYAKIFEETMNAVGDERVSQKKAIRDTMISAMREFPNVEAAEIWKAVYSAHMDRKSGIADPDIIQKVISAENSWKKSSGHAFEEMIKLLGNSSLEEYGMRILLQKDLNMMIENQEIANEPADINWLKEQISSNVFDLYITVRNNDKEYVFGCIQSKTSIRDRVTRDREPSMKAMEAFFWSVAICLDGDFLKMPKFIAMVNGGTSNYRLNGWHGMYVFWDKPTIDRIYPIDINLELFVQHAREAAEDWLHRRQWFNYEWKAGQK
Conditions: protein: recombinant; chain copies: 2; label: 33P; blunt.

A further data set has as its target T2, BsaWI W262A (UniProt Q6UQ65 1-272, W262A).
T2 sequence: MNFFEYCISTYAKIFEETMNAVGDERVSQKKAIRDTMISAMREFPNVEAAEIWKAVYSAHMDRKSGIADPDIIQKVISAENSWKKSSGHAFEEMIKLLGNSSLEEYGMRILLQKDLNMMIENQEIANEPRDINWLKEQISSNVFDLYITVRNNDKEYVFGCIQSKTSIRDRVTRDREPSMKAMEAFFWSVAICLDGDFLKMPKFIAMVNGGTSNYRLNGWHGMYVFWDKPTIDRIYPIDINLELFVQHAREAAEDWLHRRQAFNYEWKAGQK
Conditions: protein: recombinant; chain copies: 2; label: 33P; blunt.

Another data set has as its target T3, BsaWI D175A (UniProt Q6UQ65 1-272, D175A).
T3 sequence: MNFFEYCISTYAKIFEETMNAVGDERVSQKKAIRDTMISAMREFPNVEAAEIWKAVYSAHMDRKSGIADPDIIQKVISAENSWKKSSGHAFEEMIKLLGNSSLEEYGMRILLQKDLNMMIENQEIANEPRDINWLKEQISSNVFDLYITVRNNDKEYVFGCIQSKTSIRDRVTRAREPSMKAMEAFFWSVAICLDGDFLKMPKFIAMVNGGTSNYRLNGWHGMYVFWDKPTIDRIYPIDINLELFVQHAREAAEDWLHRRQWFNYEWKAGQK
Conditions: protein: recombinant; chain copies: 4; label: 33P; blunt.

The target of the next data set is T4, BsaWI D145A (UniProt Q6UQ65 1-272, D145A).
T4 sequence: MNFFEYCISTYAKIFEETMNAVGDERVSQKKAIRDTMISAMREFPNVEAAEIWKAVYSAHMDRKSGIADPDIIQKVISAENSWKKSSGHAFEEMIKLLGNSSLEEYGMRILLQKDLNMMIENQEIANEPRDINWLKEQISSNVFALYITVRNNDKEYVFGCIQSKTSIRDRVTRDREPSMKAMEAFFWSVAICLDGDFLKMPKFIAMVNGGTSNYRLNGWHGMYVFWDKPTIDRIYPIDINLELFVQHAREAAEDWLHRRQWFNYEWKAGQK
Conditions: protein: recombinant; chain copies: 4; label: 33P; blunt.

Another data set addresses T5, BsaWI E128A&R130A (UniProt Q6UQ65 1-272, E128A;R130A).
T5 sequence: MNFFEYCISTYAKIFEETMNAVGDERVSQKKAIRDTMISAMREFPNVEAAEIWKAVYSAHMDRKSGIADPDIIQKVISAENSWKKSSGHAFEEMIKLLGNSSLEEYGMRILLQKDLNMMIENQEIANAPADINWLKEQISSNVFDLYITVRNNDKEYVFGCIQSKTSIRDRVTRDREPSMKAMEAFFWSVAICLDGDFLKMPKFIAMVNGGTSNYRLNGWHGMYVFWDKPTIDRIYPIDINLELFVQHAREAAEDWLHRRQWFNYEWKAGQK
Particulars: protein: recombinant; chain copies: 2; label: 33P; blunt.

Here are results for one molecule from publication PMC4652773, “Functional significance of protein assemblies predicted by the crystal structure of the restriction endonuclease BsaWI”.

B1: SP (dsDNA)
DNA 1: GCCTTTCGGTTTACCGGTGTCATTCCGCTG
DNA 2: CAGCGGAATGACACCGGTAAACCGAAAGGC
As to B1, the Kd was determined as 3.9 ± 0.6 nM with BsaWI R130A; 2.7 ± 0.8 nM in the data set with BsaWI W262A; 6.1 ± 2.3 nM with BsaWI D175A; 17 ± 4.7 nM in the data set with BsaWI D145A; 2.1 ± 0.5 nM with BsaWI E128A&R130A.
